Read-outs that look alike come from different tables or passages of the source.
T1: mouse NKp46 (mouse, UniProt Q8C567 17-325)
T1 construct: whole, on cells
T1 sequence (looked up): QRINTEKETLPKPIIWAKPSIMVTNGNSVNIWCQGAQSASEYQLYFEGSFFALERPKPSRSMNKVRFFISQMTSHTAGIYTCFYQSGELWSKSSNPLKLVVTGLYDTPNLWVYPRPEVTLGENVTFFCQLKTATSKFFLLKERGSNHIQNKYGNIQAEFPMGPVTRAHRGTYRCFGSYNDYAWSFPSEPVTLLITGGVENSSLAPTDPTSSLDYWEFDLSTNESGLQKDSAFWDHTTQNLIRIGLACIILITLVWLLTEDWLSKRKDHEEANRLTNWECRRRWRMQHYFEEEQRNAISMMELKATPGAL


Experiments:
cynomolgus NKp46 [1] = molecular target: T2, cynomolgus NKp46 (cynomolgus monkey, UniProt Q95JB9 22-306); test: flow cytometry, HEK293F cells transfected with cyno NKp46
T2 construct: also called cyno NKp46; cynomolgus monkey NKp46
Description: (§1) Binding of NKp46-binding polypeptides formatted as VHH-Fc fusion proteins was assessed by flow cytometry. An IgG1-Fc lacking a hinge, or a homodimeric Fc (FIG. 1I-1J) was used (the Fc lacking a hinge is annotated as Fc*). HEK293F cells were transiently transfected with a plasmid encoding full-length human NKp46, cynomolgus NKp46, or mouse NKp46, followed by an IRES and GFP. Transfected cells expressing NKp46 and GFP were used to measure binding of the polypeptides. The transfected cells were plated in a 96-well plate at 30,000 cells per well in FACS buffer (PBS, 1% BSA, 0.1% NaN₃, pH 7.4). Untransfected HEK293F cells were used as a NKp46-negative control and plated at 30,000 cells per well in a separate plate. Test polypeptides were then diluted to two times the final concentration of 1000 nM, and a 3-, 4-, or 5-fold, serial dilution was made. A final column was left with only FACS buffer as a secondary-only control. Test article dilutions were added to an equal volume of cells, and assay plates were incubated for 30 minutes at 4° C. After washing twice with 150 μL. of FACS buffer per well, the cells were resuspended in FACS buffer with α-hFc-647 secondary diluted 1:1000-2000. Assay plates were then left to incubate at 4° C. for 20-30 minutes. After one additional wash with 150 μL of FACS buffer, bound antibody was detected by flow cytometry. Flow cytometric detection was performed on an Intellicyt iQue Plus or Accuri iQue. NKp46 transfected cells were gated on as GFP positive, and polypeptide binding was measured as median fluorescence at 647 nm.

mouse NKp46 [2] = molecular target: T1, mouse NKp46; test: flow cytometry, HEK293F cells transfected with mouse NKp46
Description: as §1

human NKp46 [3] = molecular target: T3, human NKp46 (human, UniProt O76036 22-304); test: flow cytometry, HEK293F cells transfected with human NKp46
T3 construct: also called CD335; NCR1
Description: as §1

cynomolgus NKp46 [4] = molecular target: T2, cynomolgus NKp46; test: flow cytometry, HEK293F cells transfected with cyno NKp46; remark: listed apart in the source
Description: as §1

mouse NKp46 [5] = molecular target: T1, mouse NKp46; test: flow cytometry, HEK293F cells transfected with mouse NKp46; remark: listed apart in the source
Description: as §1

human NKp46 [6] = molecular target: T3, human NKp46; test: flow cytometry, HEK293F cells transfected with human NKp46; remark: listed apart in the source
Description: as §1

T2 sequence (Q95JB9 22-306 limits assumed): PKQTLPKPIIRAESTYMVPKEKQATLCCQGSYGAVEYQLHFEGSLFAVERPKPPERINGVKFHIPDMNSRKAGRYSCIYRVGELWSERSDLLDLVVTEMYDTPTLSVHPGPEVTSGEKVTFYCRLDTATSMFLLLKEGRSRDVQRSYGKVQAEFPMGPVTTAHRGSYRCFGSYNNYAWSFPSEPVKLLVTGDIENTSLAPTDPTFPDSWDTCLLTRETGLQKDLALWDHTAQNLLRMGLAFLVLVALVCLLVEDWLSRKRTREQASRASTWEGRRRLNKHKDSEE
T3 sequence (O76036 22-304 Q82K): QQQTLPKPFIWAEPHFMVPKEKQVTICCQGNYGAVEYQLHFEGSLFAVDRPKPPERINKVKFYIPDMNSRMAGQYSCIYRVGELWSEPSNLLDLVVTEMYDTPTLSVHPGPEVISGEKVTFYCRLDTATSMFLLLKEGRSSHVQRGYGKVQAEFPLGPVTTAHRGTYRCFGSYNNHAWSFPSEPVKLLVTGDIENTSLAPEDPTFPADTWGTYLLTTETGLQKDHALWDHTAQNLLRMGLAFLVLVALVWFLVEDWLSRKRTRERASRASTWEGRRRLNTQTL

Binder	Bmax (MFI) (cynomolgus NKp46 [1])	Kd (cynomolgus NKp46 [1])	Bmax (MFI) (mouse NKp46 [2])	Kd (mouse NKp46 [2])	Bmax (MFI) (human NKp46 [3])	Kd (human NKp46 [3])	Bmax (MFI) (cynomolgus NKp46 [4])	Kd (cynomolgus NKp46 [4])	Bmax (MFI) (mouse NKp46 [5])	Kd (mouse NKp46 [5])	Bmax (MFI) (human NKp46 [6])	Kd (human NKp46 [6])
NKp46-5D7-Fc* (Fc fusion, VHH-Fc fusion with an IgG1 Fc lacking a hinge (Fc*); also called 5D7 VHH) QVTLRESGASLSLTCAASGRTFASAAMGWFRQAPGEEREFVAAISRSDDTYYADSVKGRFTISRDNAKNTVYLQMNSLKSEDTAVYYCAAVVPTYGNNIYVHSAAYNYWGQGTQVTVKPGGGGGPSVFLFPPKPKDTLMISRTPEVTCVVVDVSHEDPEVKFNWYVDGVEVHNAKTKPREEQYNSTYRVVSVLTVLHQDWLNGKEYKCKVSNKALPAPIEKTISKAKGQPREPQVYTLPPSRDELTKNQVSLTCLVKGFYPSDIAVEWESNGQPENNYKTTPPVLDSDGSFFLYSKLTVDKSRWQQGNVFSCSVMHEALHNHYTQKSLSLSPG	58600 MFI	0.538 nM	1.07e+06 MFI	0.487 nM	1.04e+06 MFI	0.172 nM	–	–	–	–	–	–
NKp46-hz5D7v1-Fc* (Fc fusion, VHH-Fc fusion with an IgG1 Fc lacking a hinge (Fc*)) EVQLVESGGGEVQPGGSLRLSCAASGRTFASAAMGWFRQAPGKGREFVAAISRSDDTYYAESVKGRFTISRDNAKNTLYLQMSSLRAEDTAVYYCAAVVPTYGNNIYVHSAAYNYWGQGTLVTVKPGGGGPSVFLFPPKPKDTLMISRTPEVTCVVVDVSHEDPEVKFNWYVDGVEVHNAKTKPREEQYNSTYRVVSVLTVLHQDWLNGKEYKCKVSNKALPAPIEKTISKAKGQPREPQVYTLPPSRDELTKNQVSLTCLVKGFYPSDIAVEWESNGQPENNYKTTPPVLDSDGSFFLYSKLTVDKSRWQQGNVFSCSVMHEALHNHYTQKSLSLSPG	67600 MFI	0.691 nM	1.17e+06 MFI	0.468 nM	790000 MFI	0.139 nM	–	–	–	–	–	–
NKp46-hz5D7v2-Fc* (Fc fusion, VHH-Fc fusion with an IgG1 Fc lacking a hinge (Fc*); also called NKp46-bz5D7v2-Fc*) EVQLVESGGGEVQPGGSLRLSCAASGRTFASAAMGWFRQAPGKEREFVAAISRSDDTYYAESVKGRFTISRDNAKNTLYLQMSSLRAEDTAVYYCAAVVPTYGNNIYVHSAAYNYWGQGTLVTVKPGGGGPSVFLFPPKPKDTLMISRTPEVTCVVVDVSHEDPEVKFNWYVDGVEVHNAKTKPREEQYNSTYRVVSVLTVLHQDWLNGKEYKCKVSNKALPAPIEKTISKAKGQPREPQVYTLPPSRDELTKNQVSLTCLVKGFYPSDIAVEWESNGQPENNYKTTPPVLDSDGSFFLYSKLTVDKSRWQQGNVFSCSVMHEALHNHYTQKSLSLSPG	51500 MFI	0.902 nM	1.21e+06 MFI	0.729 nM	938000 MFI	0.762 nM	–	–	–	–	–	–
NKp46-hz5D7v8-Fc* (Fc fusion, VHH-Fc fusion with an IgG1 Fc lacking a hinge (Fc*); also called NKp46-bz5D7v8-Fc*) EVQLVESGGGEVQPGGSLRLSCAASGRTFASAAMGWFRQAPGKEREFVAAISRSVGDTYYADSVKGRFTISRDNAKNTVYLQMSSLRAEDTAVYYCAAVVPTYGNNIYVHSAAYNYWGQGTLVTVKPGGGGPSVFLFPPKPKDTLMISRTPEVTCVVVDVSHEDPEVKFNWYVDGVEVHNAKTKPREEQYNSTYRVVSVLTVLHQDWLNGKEYKCKVSNKALPAPIEKTISKAKGQPREPQVYTLPPSRDELTKNQVSLTCLVKGFYPSDIAVEWESNGQPENNYKTTPPVLDSDGSFFLYSKLTVDKSRWQQGNVFSCSVMHEALHNHYTQKSLSLSPG	53500 MFI	0.526 nM	1.12e+06 MFI	0.696 nM	930000 MFI	0.203 nM	–	–	–	–	–	–

Continued, values first:

Bmax (MFI) (cynomolgus NKp46 [1])	Kd (cynomolgus NKp46 [1])	Bmax (MFI) (mouse NKp46 [2])	Kd (mouse NKp46 [2])	Bmax (MFI) (human NKp46 [3])	Kd (human NKp46 [3])	Bmax (MFI) (cynomolgus NKp46 [4])	Kd (cynomolgus NKp46 [4])	Bmax (MFI) (mouse NKp46 [5])	Kd (mouse NKp46 [5])	Bmax (MFI) (human NKp46 [6])	Kd (human NKp46 [6])	Binder
–	–	–	–	–	–	18800 MFI	0.748 nM	38100 MFI	0.604 nM	150000 MFI	0.234 nM	NKp46-hz5D7v13-Fc* (Fc fusion, VHH-Fc fusion with an IgG1 Fc lacking a hinge (Fc*)) EVQLVESGGGEVQPGGSLRLSCAASGRTFASAAMGWFRQAPGKEREFVAAISRSDDTYYAESVKGRFTISRDNAKNTVYLQMSSLRAEDTAVYYCAAVVPTYGNTIYVHSAAYNYWGQGTLVTVKPGGGGPSVFLFPPKPKDTLMISRTPEVTCVVVDVSHEDPEVKFNWYVDGVEVHNAKTKPREEQYNSTYRVVSVLTVLHQDWLNGKEYKCKVSNKALPAPIEKTISKAKGQPREPQVYTLPPSRDELTKNQVSLTCLVKGFYPSDIAVEWESNGQPENNYKTTPPVLDSDGSFFLYSKLTVDKSRWQQGNVFSCSVMHEALHNHYTQKSLSLSPG
–	0.446 nM	–	0.887 nM	–	0.189 nM	–	–	–	–	–	–	NKp46-hz5D7v4-Fc* (Fc fusion, VHH-Fc fusion with an IgG1 Fc lacking a hinge (Fc*)) EVQLVESGGGEVQPGGSLRLSCAASGRTFASAAMGWFRQAPGKEREFVAAISRSDDTYYADSVKGRFTISRDNAKNTVYLQMSSLRAEDTAVYYCAAVVPTYGNNIYVHSAAYNYWGQGTLVTVKPGGGGPSVFLFPPKPKDTLMISRTPEVTCVVVDVSHEDPEVKFNWYVDGVEVHNAKTKPREEQYNSTYRVVSVLTVLHQDWLNGKEYKCKVSNKALPAPIEKTISKAKGQPREPQVYTLPPSRDELTKNQVSLTCLVKGFYPSDIAVEWESNGQPENNYKTTPPVLDSDGSFFLYSKLTVDKSRWQQGNVFSCSVMHEALHNHYTQKSLSLSPG
–	–	–	–	–	–	17900 MFI	0.455 nM	49300 MFI	0.513 nM	149000 MFI	0.14 nM	NKp46-hz5D7v12-Fc* (Fc fusion, VHH-Fc fusion with an IgG1 Fc lacking a hinge (Fc*)) EVQLVESGGGEVQPGGSLRLSCAASGRTFASAAMGWFRQAPGKEREFVAAISRSDDTYYAESVKGRFTISRDNAKNTVYLQMSSLRAEDTAVYYCAAVVPTYGSNIYVHSAAYNYWGQGTLVTVKPGGGGPSVFLFPPKPKDTLMISRTPEVTCVVVDVSHEDPEVKFNWYVDGVEVHNAKTKPREEQYNSTYRVVSVLTVLHQDWLNGKEYKCKVSNKALPAPIEKTISKAKGQPREPQVYTLPPSRDELTKNQVSLTCLVKGFYPSDIAVEWESNGQPENNYKTTPPVLDSDGSFFLYSKLTVDKSRWQQGNVFSCSVMHEALHNHYTQKSLSLSPG
64600 MFI	0.703 nM	1.17e+06 MFI	0.613 nM	866000 MFI	0.23 nM	–	–	–	–	–	–	NKp46-hz5D7v7-Fc* (Fc fusion, VHH-Fc fusion with an IgG1 Fc lacking a hinge (Fc*); also called NKp46-bz5D7v7-Fc*) EVQLVESGGGEVQPGGSLRLSCAASGRTFASAAMGWFRQAPGKEREFVAAISRSGDTYYADSVKGRFTISRDNAKNTVYLQMSSLRAEDTAVYYCAAVVPTYGNNIYVHSAAYNYWGQGTLVTVKPGGGGPSVFLFPPKPKDTLMISRTPEVTCVVVDVSHEDPEVKFNWYVDGVEVHNAKTKPREEQYNSTYRVVSVLTVLHQDWLNGKEYKCKVSNKALPAPIEKTISKAKGQPREPQVYTLPPSRDELTKNQVSLTCLVKGFYPSDIAVEWESNGQPENNYKTTPPVLDSDGSFFLYSKLTVDKSRWQQGNVFSCSVMHEALHNHYTQKSLSLSPG
–	1.06 nM	–	0.82 nM	–	0.269 nM	–	–	–	–	–	–	NKp46-hz5D7v10-Fc* (Fc fusion, VHH-Fc fusion with an IgG1 Fc lacking a hinge (Fc*)) EVQLVESGGSLRLSCAASGRTFASAAMGWFRQAPGKEREFVAAISRSDDTYYADSVKGRFTISRDNAKNTVYLQMSSLRAEDTAVYYCAAVVPTYGNNIYVHSAAYNYWGQGTLVTVKPGGGGPSVFLFPPKPKDTLMISRTPEVTCVVVDVSHEDPEVKFNWYVDGVEVHNAKTKPREEQYNSTYRVVSVLTVLHQDWLNGKEYKCKVSNKALPAPIEKTISKAKGQPREPQVYTLPPSRDELTKNQVSLTCLVKGFYPSDIAVEWESNGQPENNYKTTPPVLDSDGSFFLYSKLTVDKSRWQQGNVFSCSVMHEALHNHYTQKSLSLSPG
61900 MFI	0.655 nM	1.22e+06 MFI	0.941 nM	1.05e+06 MFI	0.392 nM	–	–	–	–	–	–	NKp46-hz5D7v9-Fc* (Fc fusion, VHH-Fc fusion with an IgG1 Fc lacking a hinge (Fc*)) EVQLVESGGGEVQPGGSLRLSCAASGRTFASAAMGWFRQAPGKEREFVAAISRSVDDTYYADSVKGRFTISRDNAKNTVYLQMSSLRAEDTAVYYCAAVVPTYGNNIYVHSAAYNYWGQGTLVTVKPGGGGPSVFLFPPKPKDTLMISRTPEVTCVVVDVSHEDPEVKFNWYVDGVEVHNAKTKPREEQYNSTYRVVSVLTVLHQDWLNGKEYKCKVSNKALPAPIEKTISKAKGQPREPQVYTLPPSRDELTKNQVSLTCLVKGFYPSDIAVEWESNGQPENNYKTTPPVLDSDGSFFLYSKLTVDKSRWQQGNVFSCSVMHEALHNHYTQKSLSLSPG

— patent US20240376198A1 (INHIBRX, published 2024)
